B1: C601HOKC4 HuG4K (antibody, human IgG4 S228P, kappa, V domains shown)
VH: QVQLVQSGAEVKKPGESLKISCKASGYAFSDYWINWVRQMPGKGLEWMGQIYPGDDDTNYNPSFQGQATLSADKSISTAYLQWSSLKASDTAMYYCAREGYYGYTYVEYFDVWGTGTTVTVSS
VL: QIVLTQSPATLSLSPGERATLSCRASSSVSYLHWYQQKPGQSPRLWIYDTSKRATGIPARFSGSGSGTDYTLTISSLEPEDFAVYYCQQWTSNPLTFGQGTKLEIKR
B2: MoC601 HuG4K (chimeric C601 antibody) (antibody, human IgG4 S228P, kappa, V domains shown)
VH: QVQLQQSGAELVKPGASVKISCKASGYAFSDYWMNWVKQRPGKGLEWIGQIYPGDDDTNYNGKFKGKATLTADKSSSTAYMQLSSLTSEDSAVYFCAREGYYGYTYVEYFDVWGTGTTVTVSS
VL: QIVLTQSPAIMSVSPGEKVTLTCSASSSVSYMHWYQQKSGTSPKRWIYDTSKLASGVPARFSGSGSGTSYSLTISSMEAEDAATYYCQQWTSNPLTFGAGTKLELRR

Key:
[1] = biological target: human C5b6 complex (human) (UniProt P01031); assay: ELISA, C5b6-coated wells, large-scale purified antibody
[2] = biological target: human C5b6 complex (human) (UniProt P01031); assay: ELISA, C5b6-coated wells, purified antibody
[3] = biological target: human C5b6 complex (human) (UniProt P01031); assay: ELISA, C5b6-coated wells

Binder	EC50 [1] [nM]	EC50 [2] [nM]	EC50 [3] [nM]
B1	0.11		
B2		0.09	0.09

Reference: patent US20260125455A1
